Data taken from PMC6589827 (Biochemistry, 2019).

Legend:
[1] = biological target: R67 DHFR-NADP^+ (Escherichia coli, UniProt P00383); test: ITC, DHF binding to binary complex of R67 DHFR and NADP+
[2] = ITC titration of folate into the crowders; type: binding
[3] = biological target: hemoglobin; details: read-out: Kd of folate for central cavity of hemoglobin; cited from earlier work
[4] = biological target: apo-EcDHFR (Escherichia coli, UniProt P0ABQ4); test: ITC, NADP+ binding to apo-EcDHFR; parameters: species or system E. coli
apo-EcDHFR, sequence (P0ABQ4 whole entry): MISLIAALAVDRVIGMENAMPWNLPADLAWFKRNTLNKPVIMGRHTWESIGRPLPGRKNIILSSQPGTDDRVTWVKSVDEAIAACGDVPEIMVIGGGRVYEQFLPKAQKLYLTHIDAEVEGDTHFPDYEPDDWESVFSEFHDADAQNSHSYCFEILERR

[5] = biological target: R67 DHFR (Escherichia coli, UniProt P00383); test: Progress curve kinetics, reduction of DHF by R67 DHFR; type: biochemical; details: saturating NADPH, progress curves
R67 DHFR, sequence (P00383 whole entry): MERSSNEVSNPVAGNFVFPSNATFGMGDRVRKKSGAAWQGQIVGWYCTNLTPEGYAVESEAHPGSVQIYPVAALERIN

[6] = biological target: EcDHFR (Escherichia coli, UniProt P0ABQ4); details: for decrease of kcat, DHF reduction by EcDHFR: crowder at 50 mg/mL
EcDHFR, sequence (P0ABQ4 whole entry): as the sequence (P0ABQ4 whole entry) above

R67 DHFR-NADP^+, sequence (P00383 whole entry): as the sequence (P00383 whole entry) above

Molecule: Hemoglobin: bovine hemoglobin, 64,500 Da, protein crowder
- weakening of R67 DHFR affinity for DHF ([1]; crowder at 50 mg/mL): 5.5 fold

Molecule: Nc1nc(=O)c2nc(CNc3ccc(C(=O)N[C@@H](CCC(=O)O)C(=O)O)cc3)cnc2[nH]1 [folate]
- heat of binding on titration into the crowders [2]: no heat of binding
- Kd [3]: ~1000 µM

Molecule: lysozyme: hen egg-white lysozyme, 14,300 Da, protein crowder
- decrease of affinity of NADP^+ for EcDHFR ([4]; crowder at 50 mg/mL): 5 fold
- effect on efficiency (kcat/KM) of R67 DHFR reduction of DHF [5]: increases the efficiency
- decrease of kcat, DHF reduction by EcDHFR [6]: about 60%

Molecule: casein
- effect on kcat, DHF reduction by EcDHFR ([6]; over the range of concentrations used): did not alter the kcat

B1: ovalbumin: protein crowder isolated from fresh eggs (protein, UniProt P01012 2-386, looked up)
Ovalbumin: GSIGAASMEFCFDVFKELKVHHANENIFYCPIAIMSALAMVYLGAKDSTRTQINKVVRFDKLPGFGDSIEAQCGTSVNVHSSLRDILNQITKPNDVYSFSLASRLYAEERYPILPEYLQCVKELYRGGLEPINFQTAADQARELINSWVESQTNGIIRNVLQPSSVDSQTAMVLVNAIVFKGLWEKAFKDEDTQAMPFRVTEQESKPVQMMYQIGLFRVASMASEKMKILELPFASGTMSMLVLLPDEVSGLEQLESIINFEKLTEWTSSNVMEERKIKVYLPRMKMEEKYNLTSVLMAMGITDVFSSSANLSGISSAESLKISQAVHAAHAEINEAGREVVGSAEAGVDAASVSEEFRADHPFLFCIKHIATNAVLFFGRCVSP
- effect on the affinity of R67 DHFR for DHF ([1]; crowder added, ITC): little effect
- effect on affinity of NADP^+ for apo-EcDHFR ([4]; over the concentration ranges used (up to 150 mg/mL with PVP-55)): no effect on affinity
- decrease of kcat, DHF reduction by EcDHFR [6]: about 60%
